Assay results reported in patent US8337848.

Target: amyloid precursor protein (APP), full length (106 kDa), from MOG-G-UVW cell lysate (human) (UniProt P05067)
Test: competition sandwich ELISA on APP from MOG cell lysate; competitor: APP DuoSet detection antibody; irrelevant IgG at 20 µg/ml

UniProt P05067, sequence (P05067 18-770): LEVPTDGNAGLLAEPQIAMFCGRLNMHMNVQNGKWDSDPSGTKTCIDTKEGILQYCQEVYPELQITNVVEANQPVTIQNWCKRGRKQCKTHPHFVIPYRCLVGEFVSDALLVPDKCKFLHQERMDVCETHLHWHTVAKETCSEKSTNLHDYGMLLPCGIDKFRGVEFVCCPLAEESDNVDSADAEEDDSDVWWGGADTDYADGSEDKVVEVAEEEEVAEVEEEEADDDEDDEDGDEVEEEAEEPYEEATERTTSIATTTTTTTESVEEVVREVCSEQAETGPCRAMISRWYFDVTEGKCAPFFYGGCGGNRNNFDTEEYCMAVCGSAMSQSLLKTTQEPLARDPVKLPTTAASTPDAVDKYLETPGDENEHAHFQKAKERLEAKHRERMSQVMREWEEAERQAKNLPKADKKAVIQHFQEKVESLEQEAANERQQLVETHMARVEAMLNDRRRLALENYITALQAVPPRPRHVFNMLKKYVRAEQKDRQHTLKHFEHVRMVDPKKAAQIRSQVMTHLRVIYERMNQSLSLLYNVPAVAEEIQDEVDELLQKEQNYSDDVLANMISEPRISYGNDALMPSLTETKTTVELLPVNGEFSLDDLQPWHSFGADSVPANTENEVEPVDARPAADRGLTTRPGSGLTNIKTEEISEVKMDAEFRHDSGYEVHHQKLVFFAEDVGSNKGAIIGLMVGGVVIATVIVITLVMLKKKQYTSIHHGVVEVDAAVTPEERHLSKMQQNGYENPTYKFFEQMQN

irrelevant mouse IgG antibody (Perbio Science)
% reduction of the binding of the second commercial antibody: 3.3%
